A word on the Kd: it is the equilibrium constant for the complex coming apart. Read a low Kd as a tighter complex. What is called IC50 is the concentration that inhibits the measured activity by half.

Consider 19 molecules from patent US20050287542A1 (YALE UNIVERSITY, published 2005).

The target in experiment [1] is T1, HisKIX (His-tagged CBP KIX domain) (UniProt P45481 586-672).
T1 construct: range 586-672; not shown: amino-terminal hexahistidine tag of pET15b
Briefly: fluorescence polarization; end tied to the member by the Kd of Table 1.

In experiment [2] the target is T1, HisKIX (His-tagged CBP KIX domain). Briefly: fluorescence polarization.
The target of the next experiment is T2, CBP KIX variant I660A (UniProt P45481 586-665, limits assumed).
T2 construct: domain: KIX
T2 sequence (P45481 586-665 I660A limits assumed): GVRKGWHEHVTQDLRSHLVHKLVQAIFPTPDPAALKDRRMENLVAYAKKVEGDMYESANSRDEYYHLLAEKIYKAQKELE
Briefly: fluorescence polarization. (In general: Polarisation of emitted light reports the rotation of a fluorescent probe.)

Another experiment deals with T3, CBP KIX variant Q661A (UniProt P45481 586-665, limits assumed).
T3 construct: domain: KIX
T3 sequence (P45481 586-665 Q661A limits assumed): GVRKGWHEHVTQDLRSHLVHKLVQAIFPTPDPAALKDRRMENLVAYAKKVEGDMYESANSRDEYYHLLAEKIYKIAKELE
Briefly: fluorescence polarization.

For experiment [3], the target named is T4, CBP KIX variant Y650A (Example 20) (UniProt P45481 586-665, limits assumed).
T4 construct: domain: KIX
T4 sequence (P45481 586-665 Y650A limits assumed): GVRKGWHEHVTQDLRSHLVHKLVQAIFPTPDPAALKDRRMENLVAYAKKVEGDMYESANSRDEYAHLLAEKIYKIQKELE
Briefly: fluorescence polarization.

A further experiment addresses T5, CBP KIX variant Y658A (UniProt P45481 586-665, limits assumed).
T5 construct: domain: KIX
Briefly: fluorescence polarization.

Experiment [4] concerns the target T6, CBP KIX variant LL652-3AA (UniProt P45481 586-665, limits assumed).
T6 construct: domain: KIX
Briefly: fluorescence polarization.

The next experiment deals with T7, CBP KIX variant E655A (UniProt P45481 586-665, limits assumed).
T7 construct: domain: KIX
T7 sequence (P45481 586-665 E655A limits assumed): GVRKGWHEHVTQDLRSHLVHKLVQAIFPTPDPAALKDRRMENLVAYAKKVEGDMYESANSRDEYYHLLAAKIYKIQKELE
As to the kind of experiment: fluorescence polarization.

In the next experiment the target is T8, CBP KIX variant L599A (UniProt P45481 586-665, limits assumed).
T8 construct: domain: KIX
T8 sequence (P45481 586-665 L599A limits assumed): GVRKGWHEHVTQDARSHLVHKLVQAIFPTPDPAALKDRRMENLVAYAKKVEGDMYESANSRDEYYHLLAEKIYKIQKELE
As to the kind of experiment: fluorescence polarization.

Another experiment addresses T9, CBP KIX variant I657A (UniProt P45481 586-665, limits assumed).
T9 construct: domain: KIX
Briefly: fluorescence polarization.

In a further experiment the target is T10, CBP KIX variant K662A (UniProt P45481 586-665, limits assumed).
T10 construct: domain: KIX
T10 sequence (P45481 586-665 K662A limits assumed): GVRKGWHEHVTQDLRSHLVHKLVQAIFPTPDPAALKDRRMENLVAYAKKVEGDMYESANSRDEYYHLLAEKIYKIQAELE
As to the kind of experiment: fluorescence polarization.

In the next experiment the target is T11, CBP KIX variant Y658F (UniProt P45481 586-665, limits assumed).
T11 construct: domain: KIX
T11 sequence (P45481 586-665 Y658F limits assumed): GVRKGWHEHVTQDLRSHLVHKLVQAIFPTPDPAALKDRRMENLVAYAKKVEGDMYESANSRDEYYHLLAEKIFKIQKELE
As to the kind of experiment: fluorescence polarization.

The target in the next experiment is T12, CBP KIX variant K606A (UniProt P45481 586-665, limits assumed).
T12 construct: domain: KIX
T12 sequence (P45481 586-665 K606A limits assumed): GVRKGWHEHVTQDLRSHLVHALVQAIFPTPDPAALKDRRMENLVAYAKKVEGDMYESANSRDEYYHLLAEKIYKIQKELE
As to the kind of experiment: fluorescence polarization.

A further experiment concerns the target T13, CBP KIX variant L603A (UniProt P45481 586-665, limits assumed).
T13 construct: domain: KIX
Briefly: fluorescence polarization.

Experiment [5] concerns the target calmodulin (Sigma). Briefly: fluorescence polarization, calmodulin. Here is the method:
(§1) Binding reactions containing serially diluted target protein and 25-50 nM of fluorescein-labeled peptides (peptide^Flu) were incubated for 30 min at 25° C. Each point represents the average polarization of two to three independent samples; error bars denote standard error. […] Circular and triangular symbols indicate that HisKIX was used as the target protein; the symbols are colored as in FIG. 9 with the exception of the points for peptide C^U, which are in orange for clarity. Square symbols indicate that carbonic anhydrase was used as the target protein. […] Circular and triangular symbols indicate that HisKIX was used as the target protein, and the symbols are colored as in FIG. 9. Square symbols indicate that calmodulin was used as the target protein.

Experiment [6] concerns the target carbonic anhydrase II (Sigma). Briefly: fluorescence polarization, carbonic anhydrase II.
The target of experiment [7] is carbonic anhydrase II (Sigma). As to the kind of experiment: fluorescence polarization. The procedure: as §1
carbonic anhydrase II (Sigma), sequence (P00921 2-260): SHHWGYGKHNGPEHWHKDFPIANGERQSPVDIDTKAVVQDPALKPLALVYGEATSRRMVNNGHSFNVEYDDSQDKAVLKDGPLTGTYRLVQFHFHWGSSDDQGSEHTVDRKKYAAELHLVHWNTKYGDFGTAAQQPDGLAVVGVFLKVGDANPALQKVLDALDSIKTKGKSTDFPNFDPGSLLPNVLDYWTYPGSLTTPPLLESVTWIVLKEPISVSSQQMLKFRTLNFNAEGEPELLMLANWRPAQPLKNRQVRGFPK
Experiment [8] has as its target calmodulin (Sigma). Briefly: fluorescence polarization. The procedure: as §1
In experiment [9] the target is T14, GST-KIXY650A (Y650A variant of CBP KIX) (UniProt P45481 586-665, limits assumed).
T14 construct: domain: KIX; not shown: GST tag
T14 sequence (P45481 586-665 Y650A limits assumed): as the sequence (P45481 586-665 Y650A limits assumed) above
Briefly: fluorescence polarization.

Experiment [10] addresses T1, HisKIX (His-tagged CBP KIX domain). Briefly: fluorescence polarization, HisKIX, 25 C.
Experiment [11] has the same target. As to the kind of experiment: fluorescence polarization. The procedure: as §1
The source holds these as a separate data set.

Experiment [12] has as its target calmodulin (Sigma). As to the kind of experiment: fluorescence polarization. This is another data set of the same source.
Experiment [13] addresses calmodulin (Sigma). Briefly: fluorescence emission change of labelled peptide, HEPES/KCl/CaCl2 buffer.
The target in experiment [14] is carbonic anhydrase II (Sigma). Briefly: fluorescence emission change of labelled peptide, PBS.
In experiment [15] the target is T1, HisKIX (His-tagged CBP KIX domain). As to the kind of experiment: fluorescence polarization competition; displaces 25 nM fluorescein-labelled PPKID6^U from 3.0 µM HisKIX.
The target is the same in experiment [16]. As to the kind of experiment: fluorescence polarization competition: 25 nM fluorescein-labelled PPKID4^P on 1.5 uM HisKIX, unlabelled KID-AB^P titrated.
Description: Each point represents an average of three independent samples; the error bars denote standard error.
6) Fluorescence polarization—Fluorescence polarization experiments were performed with a Photon Technology International QuantaMaster C-60 spectrofluorimeter at 25° C. in a 1 cm pathlength Hellma cuvette. […] Briefly, an aliquot of fluorescently labeled peptide was added to a final concentration of 25-50 nM and the binding reaction was incubated for 30 min at 25° C. Thirty minutes was a sufficient length of time for the binding reaction to reach equilibrium, as judged by an absence of change in the observed polarization value of the sample with the highest HisKIX concentration over 1 h.
Experiment [17] has the same target. Briefly: fluorescence polarization competition; displaces 25 nM fluorescein-labelled PPKID4^P from 1.5 µM HisKIX.
In experiment [18] the target is calmodulin (Sigma). Briefly: fluorescence polarization, calmodulin (text differs from Table 2).
Description: 6) Fluorescence polarization—Fluorescence polarization experiments were performed with a Photon Technology International QuantaMaster C-60 spectrofluorimeter at 25° C. in a 1 cm pathlength Hellma cuvette. […] Briefly, an aliquot of fluorescently labeled peptide was added to a final concentration of 25-50 nM and the binding reaction was incubated for 30 min at 25° C. Thirty minutes was a sufficient length of time for the binding reaction to reach equilibrium, as judged by an absence of change in the observed polarization value of the sample with the highest HisKIX concentration over 1 h. […] For specificity measurements, carbonic anhydrase II (Sigma) or calmodulin (Sigma) was used as the target protein in place of HisKIX, and fluorescently labeled peptide was used at a final concentration of 50 nM.
The target of experiment [19] is T15, wild type CBP KIX (Example 20) (UniProt P45481 586-665, limits assumed).
T15 construct: domain: KIX
T15 sequence (P45481 586-665 limits assumed): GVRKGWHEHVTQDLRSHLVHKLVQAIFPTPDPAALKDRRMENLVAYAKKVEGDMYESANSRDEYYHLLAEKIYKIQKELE
As to the kind of experiment: fluorescence polarization.

Square brackets hold non-standard residues; d marks the D form. Primed or numbered codes have the meaning given here. Ends that are not written are not given here. * marks the point of attachment. acetamidofluorescein = acetamidofluorescein label attached to the side chain of a C-terminal cysteine residue (made by modifying the cysteine with 5-iodoacetamidofluorescein); acetamidofluorescein″ = acetamidofluorescein (5-iodoacetamidofluorescein attached to the C-terminal Cys); Fluorescein(5-NHCOCH2) = O=C(C*)Nc1ccc2c(c1)C(=O)OC21c2ccc(O)cc2Oc2cc(O)ccc21; pS = N[C@@H](COP(=O)(O)O)C(=O)O

T1 sequence (P45481 586-672): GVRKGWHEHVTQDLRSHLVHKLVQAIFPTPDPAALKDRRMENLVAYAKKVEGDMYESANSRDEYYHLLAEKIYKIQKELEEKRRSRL
T5 sequence (P45481 586-665 Y658A limits assumed): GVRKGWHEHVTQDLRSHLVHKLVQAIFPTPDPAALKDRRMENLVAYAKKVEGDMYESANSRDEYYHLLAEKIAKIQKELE
T6 sequence (P45481 other isoform, or with tags, fused parts or gaps mutant limits assumed): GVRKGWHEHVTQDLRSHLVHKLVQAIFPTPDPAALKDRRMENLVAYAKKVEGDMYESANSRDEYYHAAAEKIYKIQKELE
T9 sequence (P45481 586-665 I657A limits assumed): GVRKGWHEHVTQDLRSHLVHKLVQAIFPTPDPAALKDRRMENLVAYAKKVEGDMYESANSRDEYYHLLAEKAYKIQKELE
T13 sequence (P45481 586-665 L603A limits assumed): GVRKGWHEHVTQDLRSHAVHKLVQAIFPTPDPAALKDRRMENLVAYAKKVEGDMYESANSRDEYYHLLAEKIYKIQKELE

B1: PPKID1^U (designed binder)
peptide: GASDMTYWGDDAPVRRLSFFYILLDLYLDAPGVC(acetamidofluorescein″)-NH2
notes: also called PPKID1 (unphosphorylated)
For the molecule B1, the “ΔΔG against peptide C^U” value in experiment [1] amounted to 0.1 kcal/mol.

B2: PPKID6 S18E (designed binder)
peptide: GISWPTFEGDDAPVRRLEFFYILLDLYLDAPGVC(acetamidofluorescein″)-NH2
In the case of B2, in experiment [2], the “ΔΔG against PPKID6^U” value amounted to 1.2 kcal/mol.

B3: PPKID6^P (designed binder)
peptide: GISWPTFEGDDAPVRRL[pS]FFYILLDLYLDAPGVC(acetamidofluorescein″)-NH2
notes: also called PPKID6 (phosphorylated)
Consider B3, for which, in experiment [2], the ΔΔG upon phosphorylation was -0.5 kcal/mol.

B4: PPKID6^U (designed binder)
peptide: GISWPTFEGDDAPVRRLSFFYILLDLYLDAPGVC(acetamidofluorescein)-NH2
notes: also called PPKID6 (unphosphorylated)
For B4, the “ΔΔG against wild type CBP KIX” value was 1.4 kcal/mol in the experiment with CBP KIX variant I660A; -0.16 kcal/mol in the experiment with CBP KIX variant Q661A; 0.52 kcal/mol in [3]; 0.68 kcal/mol with CBP KIX variant Y658A; -0.8 kcal/mol in [4]; 0.68 kcal/mol with CBP KIX variant E655A. Also, the “ΔΔG against wild type CBP KIX” value with CBP KIX variant L599A stood at 1.1 kcal/mol; with CBP KIX variant I657A it was 1.1 kcal/mol; with CBP KIX variant K662A, 0.71 kcal/mol; with CBP KIX variant Y658F, 0.97 kcal/mol; in the experiment with CBP KIX variant K606A, 0.47 kcal/mol; in the experiment with CBP KIX variant L603A it was 0.91 kcal/mol. The Kd with calmodulin (Sigma) [5] is greater than 168 µM; in experiment [6], 79 µM; in experiment [9], 0.712 µM. Besides, the “Krel = Kd (CA)/Kd (HisKIX)” value in experiment [7] is 53. In addition, the “Krel = Kd (CalM)/Kd (HisKIX)” value in the experiment with calmodulin (Sigma) [8] is greater than 112.

B5: peptide C^P (chimeric α-helical portion of the PPKID peptides, residues 15-33, phosphorylated) (peptide)
peptide: RRL[pS]FFYILLDLYLDAPGVC(acetamidofluorescein)-NH2
For the molecule B5, the dissociation constant Kd worked out at 178 µM in the experiment with calmodulin (Sigma) [5], 2.4 µM in experiment [10] and 2.4 µM in [11]. Further, in experiment [7], the “Krel = Kd (CA)/Kd (HisKIX)” value amounted to 40. The “Krel = Kd (CalM)/Kd (HisKIX)” value with calmodulin (Sigma) [8] was determined as 74. Moreover, in [2], the “ΔΔG against KID-B^P” value is -1.8 kcal/mol. Further, the “fold lower affinity than PPKID4^P” value with calmodulin (Sigma) [12] turned out to be 4 fold.

B6: p4099, fluorescein-labelled (designed binder)
peptide: GPSQPTYPGDDAPVEDLIRFVGRLLAYFGDTINRYC(5‑iodoacetamidofluorescein)-NH2
notes: p4121-flu tied to p4099 by order and mass difference only; also called p4099 (GAGT); p4121-flu
With B6, the Kd came out at 25 µM in the experiment with calmodulin (Sigma) [13] and 8.6 µM in experiment [14].

B7: peptide C^U (peptide)
peptide: RRLSFFYILLDLYLDAPGVC(acetamidofluorescein)-NH2
Consider B7, for which the “Krel = Kd (CA)/Kd (HisKIX)” value in experiment [7] came out at 3. Further, the “ΔΔG against KID-B^U” value in experiment [2] was no less than -1.5 kcal/mol.

B8: unlabeled KID-AB^P (peptide)
peptide: TDSQKRREILSRRP[pS]YRKILNDLSSDAPGVC-NH2
notes: also called CREB KID^P
B8: the IC50 in [15] came out at 2.4 µM; in experiment [17], 3.2 µM. In experiment [16], the “IC50 (read off the curve)” value is roughly 3 µM.

B9: PPKID3^U (designed binder)
peptide: GASPHTSSGDDAPVRRLSFFDILLDLYLDAPGVC(acetamidofluorescein″)-NH2
notes: also called PPKID3 (unphosphorylated)
Consider B9, for which the “ΔΔG against peptide C^U” value in experiment [1] was -0.7 kcal/mol.

B10: PPKID4^P (designed binder)
peptide: GPSQPTYPGDDAPVRRL[pS]FFYILLDLYLDAPGVC(acetamidofluorescein)-NH2
notes: also called PPKID4 (phosphorylated); wild type PPKID4^P
As for B10, the “ΔΔG against wild type CBP KIX” value with CBP KIX variant I660A was 0.35 kcal/mol; with CBP KIX variant Q661A it was 0.35 kcal/mol; in experiment [3], 0.95 kcal/mol; with CBP KIX variant Y658A, 1.1 kcal/mol; in [4], 0.93 kcal/mol; with CBP KIX variant E655A, -0.07 kcal/mol. For the same molecule, the “ΔΔG against wild type CBP KIX” value turned out to be 0.58 kcal/mol with CBP KIX variant L599A; 0.89 kcal/mol with CBP KIX variant I657A; 1.1 kcal/mol with CBP KIX variant K662A; 1.1 kcal/mol in the experiment with CBP KIX variant Y658F; 0.97 kcal/mol with CBP KIX variant K606A; 1 kcal/mol in the experiment with CBP KIX variant L603A. For the same molecule, the dissociation constant Kd was 52 µM with calmodulin (Sigma) [5], 51 µM with calmodulin (Sigma) [18] and 106 µM in [6].

B11: PPKID4^P variant Y27A (designed binder)
peptide: H-GPSQPTYPGDDAPVRRL[pS]FFYILLDLALDAPGVC(Fluorescein(5-NHCOCH2))-NH2
Turning to B11, the “ΔΔG against wild type PPKID4^P” value in [19] amounted to 0.96 kcal/mol.

B12: PPKID4^P variant P8A (designed binder)
peptide: H-GPSQPTYAGDDAPVRRL[pS]FFYILLDLYLDAPGVC(Fluorescein(5-NHCOCH2))-NH2
For B12, the “ΔΔG against wild type PPKID4^P” value in [19] came to 0.33 kcal/mol.

B13: PPKID4^P variant P5A (designed binder)
peptide: H-GPSQATYPGDDAPVRRL[pS]FFYILLDLYLDAPGVC(Fluorescein(5-NHCOCH2))-NH2
In the case of B13, the “ΔΔG against wild type PPKID4^P” value in experiment [19] worked out at 0.3 kcal/mol.

B14: PPKID4^P variant L24A (designed binder)
peptide: H-GPSQPTYPGDDAPVRRL[pS]FFYILADLYLDAPGVC(Fluorescein(5-NHCOCH2))-NH2
As to B14, the “ΔΔG against wild type PPKID4^P” value in [19] stood at 0.38 kcal/mol.

B15: PPKID4^P variant F20A (designed binder)
peptide: H-GPSQPTYPGDDAPVRRL[pS]FAYILLDLYLDAPGVC(Fluorescein(5-NHCOCH2))-NH2
For B15, in experiment [19], the “ΔΔG against wild type PPKID4^P” value amounted to 0.85 kcal/mol.

B16: PPKID4^P variant L28A (designed binder)
peptide: H-GPSQPTYPGDDAPVRRL[pS]FFYILLDLYADAPGVC(Fluorescein(5-NHCOCH2))-NH2
Take B16: the “ΔΔG against wild type PPKID4^P” value in experiment [19] turned out to be 0.18 kcal/mol.

B17: PPKID4^P variant L17A (designed binder)
peptide: H-GPSQPTYPGDDAPVRRA[pS]FFYILLDLYLDAPGVC(Fluorescein(5-NHCOCH2))-NH2
With B17, the “ΔΔG against wild type PPKID4^P” value in [19] amounted to 0.07 kcal/mol.

B18: PPKID4^P variant P2A (designed binder)
peptide: H-GASQPTYPGDDAPVRRL[pS]FFYILLDLYLDAPGVC(Fluorescein(5-NHCOCH2))-NH2
With B18, the “ΔΔG against wild type PPKID4^P” value in [19] was 0.21 kcal/mol.

B19: Bak peptide, fluorescein-labelled (Bak-flu) (peptide)
peptide: GQVGRQLAIIGDDINRYC(5‑iodoacetamidofluorescein)-NH2
notes: also called Bak BH3 peptide; Bak 72-94
Take B19: the figures for the Kd (with calmodulin (Sigma) [13]; in [14]) were 25 µM and 22 µM, respectively.
